From a protein production outcome set (Wang et al. 2014)

Test: label from the status in PepcDB records

Sequence	protein production
MPGAEKGPQPRRPDFTEAGVIQNRAAGRNRSPDPSPDGAQARRRSWRNQGAWLSFVAWPHRRGSATVEPPPLTLRQQLTTVRWLLTGLFAMMLLVFLYFGRDVLMPIVLALLLALMLSPIVRLLRRRKVPEGVAAVVVTLGFAAGMLLIGFTISGPVATWLEDAPSIGKRIAHKLSSLRESFDVVLDASRQVEEAADTSSKDNTDRVVMAQPGLLVKAADSLASGFTTFGVTIVITLFFLASGSMFTEKIVHVMPLFRDKLRVLRVVRDIETEVSSYLLTVAMINAGLGVAVGCALWLAGMPNAFLWGGMAMVLNFLPYIGSMIGISLVALVSFVTFDSLGQALIPPLSYLAVTSVEGQFLTPAIVGRRLELNALSVMLAVLFWAWLWGIVGALIAVPLLVVVKVVCSHFEGLAVVGEFLSARRPFSDQVKDGA	failed
MPGFDYKFLEKPKRRLLCPLCGKPMREPVQVSTCGHRFCDTCLQEFLSEGVFKCPEDQLPLDYAKIYPDPELEVQVLGLPIRCIHSEEGCRWSGPLRHLQGHLNTCSFNVIPCPNRCPMKLSRRDLPAHLQHDCPKRRLKCEFCGCDFSGEAYESHEGMCPQESVYCENKCGARMMRRLLAQHATSECPKRTQPCTYCTKEFVFDTIQSHQYQCPRLPVACPNQCGVGTVAREDLPGHLKDSCNTALVLCPFKDSGCKHRCPKLAMARHVEESVKPHLAMMCALVSRQRQELQELRRELEELSVGSDGVLIWKIGSYGRRLQEAKAKPNLECFSPAFYTHKYGYKLQVSAFLNGNGSGEGTHLSLYIRVLPGAFDNLLEWPFARRVTFSLLDQSDPGLAKPQHVTETFHPDPNWKNFQKPGTWRGSLDESSLGFGYPKFISHQDIRKRNYVRDDAVFIRAAVELPRKILS	not failed
MPGFLTADLIRARLAPKDFQRGEEYLKDGRVLKAEWVADDEISGQVAGSAGRRYVQTITLENGLGGLSIVGYCSCPVGFACKHVAAVLLTLAREAEPVVPAWDGSFGARPAQAAVSEPTLDPALAEWIAAVAGFEEVGDPEAYPPAIRHRLIYVVGPQGEGGVPQNGEGRSESRGGGRVSAEIEVTLWSIAVLKDGQMSSVERRILSADALVRSPARPAYLRPSDLALVPRLAALRAPGGGNALLLPQISGSELFAAMVASGRCRWGGPDGPTLYPGAARRAKLVWRSDGEGWQRPAIEPEAMAPEAADPETAQPDIGQPYIAQPAIPEIGALDGEAVEAPTRTDPDDASPAPEDGESGQSPEAEAWDLRALPIEPPAYVDPRSGETGPLDLGLDPRLAARLLSAPPIPPTSVDAVRSRLGALLPAAVPVLPAPIDAQPLSVAPQPILRLLALRAVPRMRGAEMPGETTQALVARPCFAYDSVILPADSSEPAPLRMVGASLMRIERDFAAEGTALRQLDRIGPLRVAEALGRVRVEGGISADRLIAPPFLPRGEERERAVDFLRDGVPDLEEAGWRIEIDPDFPVRPVVADSQDWWGGLNAVGGLEGTVGGWLSVGLGVTIDGERVDLLPALLTLLGEGEDLVEREEDELLYLPLGDGRVLPVAVRRLRPIFHALHAVAVPDERAGPGVRLSGRDLGPLALLEEAGKPLGVVWEGAEGARDIARRLAVVGLREAVAPPKGLVGSLRAYQNEGLDWLQFLRANNLGGILADDMGLGKTLQTLAHILVEKESGRLNDPVLIVAPTSVLGAWRREAAQFAPGLRLVVLHGPERAAGFSQMADQDVVVTSYALVRHDLEVLKAQPWHMLVLDEAQTIRNPQTVQYKAVAALKARHRLFLTGTPLENHLGDLWALMDLLMPGLLGDGATFRRVFRGPIEKRGDGPRRRALAVRVRPFILRRTKDEVATDLPAKTEMIDMVELEGGQRDLYEAVRLAAHKAIREVLAEKGLARGRIHILAALTRLRQVCCDPRLVKGGPRKPPPSAKLDRLEEMLRDLVDEGRRTLVFSAFPSMLALVEERLAAASIPWVSLTGETRDRDTPVTRFQSGAVPVFLISLKAGGTGLTLTAADTVIHYDPWWNPAVEAQATDRAHRIGQDKPVFVHKLVAAGTVEERILALQDRKRGLLDGLFDGEAGPSSLLSEEVIEEILRPLG	failed
MPGIDKLPIEETLEDSPQTRSLLGVFEEDATAISNYMNQLYQAMHRIYDAQNELSAATHLTSKLLKEYEKQRFPLGGDDEVMSSTLQQFSKVIDELSSCHAVLSTQLADAMMFPITQFKERDLKEILTLKEVFQIASNDHDAAINRYSRLSKKRENDKVKYEVTEDVYTSRKKQHQTMMHYFCALNTLQYKKKIALLEPLLGYMQAQISFFKMGSENLNEQLEEFLANIGTSVQNV	failed
MPHFHFSWREKFSVFRMAAEPPEKLVGALVGGLRVLRYLSAAPAGVGVTRVARDLQLNSSTCYNFLKTLVYEGLVTFDESTKTYSIALGLVELAKGVLEQGAYVRLIHPHLEEIARAHRVTATLWQRTSNERVVLVDRADNDSSVRVHMSVGQRLPMYIAALGRCMAANAGLDRDQLEQRFNALRWDDKPPFDEYLAGVQEARKNGYATDAGHYVKGVSTASAAVLDAFGKPVMAISAVGFSAQFTGDALEQLGEDLHERAGRITRALSGGRAGADS	failed
MPIKKPCLKLNLDSLNVVRSEIPQMLSANERLKNNFNILYNQIRQYPAYYFKVASNVPTYSDICQSFSVMYQGFQIVNHSGDVFIHACRENPQSKGDFVGDKFHISIAREQVPLAFQILSGLLFSEDSPIDKWKITDMNRVSQQSRVGIGAQFTLYVKSDQECSQYSALLLHKIRQFIMCLESNLLRSKIAPGEYPASDVRPEDWKYVSYRNELRSDRDGSERQEQMLREEPFYRLMIE	failed
MPISAHYGLTVLIWGLTWTAIRLQVESASVDLAVFYRFVMASVVALAVLAVTRRLSRLTLGQHGWLFLQGLTLYSVNFLLIYRAAESMTSGLLAVVFSLAALFNAFNGWLWLRTRPTARLYPAVALGVTGVALLFWHDLQLGNATGASILFAVAGTFWFSMGNLVSVKVKAAGVPLFTANAWAMVYGALILGLWCLIQGVEWMLPATSVFWGATVFLAVPGSIVAFYCYITVIQVLGADKAGYAAVLFPVVALSVSTWLEGFEWTTPAMLGALLAILGNYVLFRPGKRQSVSATSVPEQRT	failed
MPITIGNGFLKSEILTNSPRNTKEAWWKVLWEKIKDFFFSTGKAKADRCLHEMLFADRTPTRERLTEIFFELKELACASQRDRFQVYNPNENDDTIILRIMDQNEENELLRITQNTDAFTCEVMGNAYFLIKDRPDILKPHPQMTAMINRRYSEIVDYPLPSTLCLNPAGAPTLSVPLDNIEGYLYSEWRKGNLDEWKTQEKVTYLAAKIQSGIEKTTRILQHANISESTQQSAFLETMAMCGLKQLEIPPPHTHIPIEKMVKEVLLADKTFQAFLVTDPSTSQSMLAEIVEAISDQVFHAIFRIAPQAIQKMAEEQLTTLHVRSEQQSGCLCCFL	failed
MPKEKYEPPDPRRMYTIMSSEEAANGKKSHWAELEISGKVRSLSSSLWSLTHLTALHLSDNSLSCIPSDIAKLHNLVYLDLSHNQIQSLPAELGNMVSLRELHLNYNQLRVLPFELGKLFQLQTLSLKGNPLTQDILNLCLEPDGTRRLLNYLLDNLSVSTEQPPPRSWIMLQEPDRTRPTALFSVMCYNVLCDKYATRQLYGYCPSWALNWDYRKKAIIQEILSCNADIISLQEVETEQYYSFFLVELKERGYNGFFSPKSRARTMSEQERKHVDGCAIFFKTEKFTLVQKHTVEFNQLAMANSEGSEAMLNRVMTKDNIGVAVLLELRKELIEMSSGKPHLGTEKQLILVANAHMHWDPEYSDVKLVQTMMFLSEVKNIIDKASRSLKSSVLGECGTIPLVLCADLNSLPDSGVVEYLSTGGVETNHKDFKELRYNESLTNFSCNGKNGMTNGRITHGFKLKSAYENGLMPYTNYTFDFKVSFHSLIFISMFCNFLSLKHQCML	failed
MPKERVDVLAYKQGLFETREQAKRGVMAGLVVNVINGERYDKPGEKIDDGTELKLKGEKLRYVSRGGLKLEKALAVFNLSVEDMITIDIGASTGGFTDVMLQNGAKLVYAVDVGTNQLVWKLRQDDRVRSMEQYNFRYAEPVDFTEGLPSFASIDVSFISLNLILPALAKILVDGGQVVALVKPQFEAGREQIGKNGIVRESSIHEKVLETVTAFAVDYGFSVKGLDFSPIQGGHGNIEFLAHLEKTDSPQNDVPTSIKEVVAQAHKEFKKNEEERSFGVNPKDCPRK	not failed
MPKILWKSLHLCFPSNLTKCYSSPCIPPSSADPDGIIQPNRPSIVLLNNFNLLYHNDNHHHPHRVIDLPSSSTTTTPAATSSSSTSSYESDISPDVSAAFASRRFFFSSPGRSNAITDSPEPRSREFSDNYDDATITSTKKKKKKVYDNSVTTTTTRLISGGTAVTQHVDSPDPLTDFRRSMQEMIDAAIDAGELSRDPNDGYDFLDELLLTYLSLNPADTHKFVIRAFSDILVSLLSEERRIC	failed
MPKIPITLITGFLGSGKTSFLSEYLNQTDHQGVALIINEIGQAALDQRILSVQYCGEKMLYLNAGCVCCNKRLDLVESLKATLNNYEWHGEILRRIIIETTGLANPAPILWTILSDTFLGVHFEIQSVVACVDALNAREHLTNNEAKEQIVFADSVLLTKTDLQNDSAALTKLKERIQALNPSAEIFDKRAIDYESLFSRKNRARNFMPRMPKDSHSQGFETLSINFEGTMEWSAFGIWLSLLLHQYGTQILRIKGIIDIGSGFLVSINGVMHVIYPPKHILKDQNGSNLVFIMRHLEREKILNSLKGFKDFLGIKGFETQLEHHHHHH	not failed
MPKIWTERIFDDPEIYVLRIDDDRIRYFEAVWEIPEGISYNAYLVKLNGANVLIDGWKGNYAKEFIDALSKIVDPKEITHIIVNHTEPDHSGSLPATLKTIGHDVEIIASNFGKRLLEGFYGIKDVTVVKDGEEREIGGKKFKFVMTPWLHWPDTMVTYLDGILFSCDVGGGYLLPEILDDSNESVVERYLPHVTKYIVTVIGHYKNYILEGAEKLSSLKIKALLPGHGLIWKKDPQRLLNHYVSVAKGDPKKGKVTVIYDSMYGFVENVMKKAIDSLKEKGFTPVVYKFSDEERPAISEILKDIPDSEALIFGVSTYEAEIHPLMRFTLLEIIDKANYEKPVLVFGVHGWAPSAERTAGELLKETKFRILSFTEIKGSNMDERKIEEAISLLKKELE	not failed
MPKKLGPKSQRQRGAVAPLTQVQQAACSPTYKQAKRNARSYQGRRRRRRCSQNTTSRVPSQLQAVDSSSASCRTYKNSEELRSRIVSGIITPIHEQWEKANVSSPHREFPPATAREVDPLRIPPHHPHTSRQPPWCDPLGPFVVGGEDLDPFGPRRGGMIVDPLRSGFPRALIDPSSGLPNRLPPGAVPPGARFDPFGPIGTSPPGPNPDHLPPPGYDDMYL	failed
MPKLNLTSIDVLLSDDSDRRQLACKSNHSTVSSLPAMDSRESITSTSPEVAILLCTYHGQRYLPEQLASFEVQSHSNWKVWASDDGSEDGTHAILDAYSRKWPEGRLSICSGPSEGFAANFISLTCKDSIQADFYAYSDQDDIWNVNKLARAVQWLETVPVNIPALYCSRTRLVDSDDNEIGISPLFVRPPSFANALMQNIGGGNTMVFNNAARELFCEAGENTLVVAHDWWAYIAVTGCGGQVFYDREPTLRYRQHNGNLIGTNSNWSARFKRIHMLFQGEFRRWSDINIAALGALEHKLTPENREILQRFASGRKMSLIPRLIQFKRAGIYRQTLFSNFGLVVAAIFGKV	failed
MPKLTKRILDAAGARPTPYFLWCSDLKGFGVRIFPSGRRVYYADYRTAAGMRRRMSLGEHGKLTVDEARRLAITTLGDVIRGDDPIEERVTRRKSLTIAELCRRYLEAAGAGLVLGRGRKPKKATTLVSDRGRIEHHIVPLLGSRLVRDLTTAEVQRFVRDVQAGRTAKRYKTKARGMVLVEGGAGAAARTAGLLGGIMSYAIGEGVIALNPVRGVKRPADRKKDRRLSPEEYRALGRVLAEAEGDRESWQAVSSIQLLCLTGCRMREIANLRWTEVDFAGRCLRLDNTKEGRSIRPLGQAAVALLRQIEERRAGPYVLPATRGEGGFGGIPDAIERYSKRAGLPGIGAHTLRHSFASTAADLGCSDSTIGAMLGHAGHGVTSRYIHHLDAVLIMAADRVTTAMAGWLKDRYAERLEPAYPASRTVPLS	failed
